Experimental data as given in patent US20160159928A1 (published 2016).
Residue numbers refer to the chain shown, from its start. Names may count otherwise.

Key:
CXCR1 [1] = molecular target: T1, CXCR1 (UniProt P25024 1-350, limits assumed); experiment: flow cytometry; fluorescence on CXCR1-U2OS over parental U2OS cells
T1 construct: whole, on cells; also called CXCR1 receptor; CXCR1-U2OS
T1 sequence (looked up): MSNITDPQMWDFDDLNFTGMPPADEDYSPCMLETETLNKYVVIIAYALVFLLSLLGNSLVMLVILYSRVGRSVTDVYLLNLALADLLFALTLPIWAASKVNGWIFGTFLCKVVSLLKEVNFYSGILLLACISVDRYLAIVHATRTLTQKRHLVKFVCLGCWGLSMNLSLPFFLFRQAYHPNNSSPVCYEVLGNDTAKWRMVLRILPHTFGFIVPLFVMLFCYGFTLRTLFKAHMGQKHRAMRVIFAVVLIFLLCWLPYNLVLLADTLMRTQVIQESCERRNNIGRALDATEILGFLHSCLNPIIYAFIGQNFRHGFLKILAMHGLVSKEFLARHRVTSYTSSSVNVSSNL
Procedure: (§1) Briefly, a cell line expressing functionally validated CXCR1 derived from U2OS cells was obtained from DiscoveRx and cultured per manufacturer's instructions (Cat#93-0226C3, DiscoveRx Corporation, Freemont, Calif.). The parental cell line U2OS was obtained from ATCC and cultured under the same conditions as the CXCR1 cells. Cell culture supernatants were then tested for binding to cells by flow cytometry. The adherent U2OS or CXCR1-U2OS cells were dissociated with Accutase (Innovative Cell Technologies, Inc., San Diego, Calif.), neutralized with an equal volume of media containing 10% serum, centrifuged at 1000 g, and resuspended in PBS with 2% BSA. Next, cells were dispensed into microtiter plates to achieve between 30,000 to 300,000 cells per well, centrifuged again, and resuspended in cell culture supernatant containing expressed IgG, or a dilution of IgG-containing cell culture supernatant. A fluorescent-conjugated anti-Human Fc antibody was used to detect binding of the expressed antibody to cells.

CXCR1 [2] = molecular target: T1, CXCR1; experiment: as above; remark: listed apart in the source
Procedure: as §1

CXCR1 [3] = molecular target: T1, CXCR1; experiment: flow cytometry, IgG supernatant, fluorescent anti-human Fc; parental U2OS: 5
Procedure: as §1

CXCR1 [4] = molecular target: T1, CXCR1; experiment: flow cytometry; secreted IgG, CXCR1-U2OS over parental U2OS cells
CXCR1 [5] = molecular target: T1, CXCR1; experiment: flow cytometry; CXCR1-U2OS over parental U2OS cells
CXCR1 [6] = molecular target: T1, CXCR1; experiment: flow cytometry, IgG 10 nM, 2% BSA in PBS plus 2 ug/ml heparin sulfate
Procedure: Transfections and ELISA were carried out as described above, and flow cytometry was used to evaluate CXCR1 binding specificity as previously described, with the modification that cells were resuspended in 2% BSA in PBS plus 2 ug/ml Heparin sulfate, and IgGs were normalized to 10 nM during incubation on cells.

B1: VH4-34+CDR3-IL8 IgG (BLV1H12 light chain) (antibody)
VH: QVQLQQWGAGLLKPSETLSLTCAVYGGSFSGYYWSWIRQPPGKGLEWIGEINHSGSTNYNPSLKSRVTISVDTSKNQFSLKLSSVTAADTAVYYCTSVHQETKKYQSPRSAKELRCQCIKTYSKPFHPKFIKELRVIESGPHCANTEIIVKLSDGRELCLDPKENWVQRVVEKFLKRAENSGSGSYTYNYEWHVDVWGQGLLVTVSSAS
light: not shown
notes: also called VH4-34 BLVCDR3IL8
CXCR1 [1]
  Ratio of CXCR1/Parental: 9.3
CXCR1 [2]
  FACS CXCR1/Parental Ratio: 9.3

B2: VH4-34+CDR3-IL8_CDR2 Cow IgG (BLV1H12 light chain) (antibody)
VH: B1 VH with I48L, E50S, N52D, H53T, S54G, S56N, N58G
light: not shown
notes: also called VH4-34 + CDR3-IL8 + Cow CDR2
CXCR1 [2]
  FACS CXCR1/Parental Ratio: 8

B3: VH4-34+CDR3-IL8_CDR2 E50S IgG (BLV1H12 light chain) (antibody)
VH: B1 VH with E50S
light: not shown
notes: also called VH4-34 + CDR3-IL8 + E50S
CXCR1 [2]
  FACS CXCR1/Parental Ratio: 4

B4: VH1-24+CDR3-IL8 IgG (antibody)
VH: QVQLVQSGAEVKKPGASVKVSCKVSGYTLTELSMHWVRQAPGKGLEWMGGFDPEDGETIYAQKFQGRVTMTEDTSTDTAYMELSSLRSEDTAVYYCTSVHQETKKYQSPRSAKELRCQCIKTYSKPFHPKFIKELRVIESGPHCANTEIIVKLSDGRELCLDPKENWVQRVVEKFLKRAENSGSGSYTYNYEWHVDVWGQGLLVTVSSAS
light: not shown
notes: also called VH1-24 BLVCDR3IL8
CXCR1 [1]
  Ratio of CXCR1/Parental: 4.3
CXCR1 [3]
  fluorescence on CXCR1-U2OS cells: 23

B5: BLV1H12+CDR3-IL8 heavy chain with BLV1H12 light chain (SEQ ID NO: 412) (antibody, human IgG1)
heavy: not shown
light: QAVLNQPSSVSGSLGQRVSITCSGSSSNVGNGYVSWYQLIPGSAPRTLIYGDTSRASGVPDRFSGSRSGNTATLTISSLQAEDEADYFCASAEDSSSNAVFGSGTTLTVLGQPKSPPSVTLFPPSTEELNGNKATLVCLISDFYPGSVTVVWKADGSTITRNVETTRASKQSNSKYAASSYLSLTSSDWKSKGSYSCEVTHEGSTVTKTVKPSECS
CXCR1 [4]
  FACS CXCR1/Parental Ratio: 5

B6: VH4-34+CDR3-IL8_CDR1 Cow with light chain V1-51 (antibody, human IgG1, lambda)
heavy: not shown
light: QSVLTQPPSVSAAPGQKVTISCSGSSSNIGNNYVSWYQQLPGTAPKLLIYDNNKRPSGIPDRFSGSKSGTSATLGITGLQTGDEADYYCASAEDSSSNAVFGSGTTLTVLGQPKAAPSVTLFPPSSEELQANKATLVCLISDFYPGAVTVAWKADSSPVKAGVETTTPSKQSNNKYAASSYLSLTPEQWKSHRSYSCQVTHEGSTVEKTVAPTECS
CXCR1 [5]
  CXCR1/Parental Ratio: 2.4
CXCR1 [6]
  CXCR1 specificity (CXCR1/parental ratio): 7.2

B7: VH4-34+CDR3-IL8_CDR1 Cow_CDR2 Cow with light chain V1-51 (antibody, human IgG1, lambda)
heavy: not shown
light: B6 light
notes: also called BID 35
CXCR1 [5]
  CXCR1/Parental Ratio: 3.1
CXCR1 [6]
  CXCR1 specificity (CXCR1/parental ratio): 11.1

B8: BLV1H12 IgG (antibody)
VH: QVQLRESGPSLVKPSQTLSLTCTASGFSLSDKAVGWVRQAPGKALEWLGSIDTGGNTGYNPGLKSRLSITKDNSKSQVSLSVSSVTTEDSATYYCTSVHQETKKYQSCPDGYRERSDCSNRPACGTSDCCRVSVFGNCLTTLPVSYSYTYNYEWHVDVWGQGLLVTVSSAS
light: not shown
notes: also called ULcowV
CXCR1 [1]
  Ratio of CXCR1/Parental: 1.9
CXCR1 [2]
  FACS CXCR1/Parental Ratio: 1.9
CXCR1 [3]
  fluorescence on CXCR1-U2OS cells: 9

B9: VH1-46+CDR3-IL8 IgG (antibody)
VH: QVQLVQSGAEVKKPGASVKVSCKASGYTFTSYYMHWVRQAPGQGLEWMGIINPSGGSTSYAQKFQGRVTMTRDTSTSTVYMELSSLRSEDTAVYYCTSVHQETKKYQSPRSAKELRCQCIKTYSKPFHPKFIKELRVIESGPHCANTEIIVKLSDGRELCLDPKENWVQRVVEKFLKRAENSGSGSYTYNYEWHVDVWGQGLLVTVSSAS
light: not shown
notes: also called VH1-46 BLVCDR3IL8
CXCR1 [1]
  Ratio of CXCR1/Parental: 1.1
CXCR1 [3]
  fluorescence on CXCR1-U2OS cells: 6
